In patent publication US20060239990A1, “Protein Arginine N-Methyltransferase 2 (PRMT-2)” (priority 2003, published 2006):

T1: RB (Homo sapiens, UniProt P06400)
T1 construct: coding region of RB cDNA was subcloned into pGEX-6P (Amersham/Pharmacia) for generation of GST-RB; made in house
T1 sequence (P06400 1-928): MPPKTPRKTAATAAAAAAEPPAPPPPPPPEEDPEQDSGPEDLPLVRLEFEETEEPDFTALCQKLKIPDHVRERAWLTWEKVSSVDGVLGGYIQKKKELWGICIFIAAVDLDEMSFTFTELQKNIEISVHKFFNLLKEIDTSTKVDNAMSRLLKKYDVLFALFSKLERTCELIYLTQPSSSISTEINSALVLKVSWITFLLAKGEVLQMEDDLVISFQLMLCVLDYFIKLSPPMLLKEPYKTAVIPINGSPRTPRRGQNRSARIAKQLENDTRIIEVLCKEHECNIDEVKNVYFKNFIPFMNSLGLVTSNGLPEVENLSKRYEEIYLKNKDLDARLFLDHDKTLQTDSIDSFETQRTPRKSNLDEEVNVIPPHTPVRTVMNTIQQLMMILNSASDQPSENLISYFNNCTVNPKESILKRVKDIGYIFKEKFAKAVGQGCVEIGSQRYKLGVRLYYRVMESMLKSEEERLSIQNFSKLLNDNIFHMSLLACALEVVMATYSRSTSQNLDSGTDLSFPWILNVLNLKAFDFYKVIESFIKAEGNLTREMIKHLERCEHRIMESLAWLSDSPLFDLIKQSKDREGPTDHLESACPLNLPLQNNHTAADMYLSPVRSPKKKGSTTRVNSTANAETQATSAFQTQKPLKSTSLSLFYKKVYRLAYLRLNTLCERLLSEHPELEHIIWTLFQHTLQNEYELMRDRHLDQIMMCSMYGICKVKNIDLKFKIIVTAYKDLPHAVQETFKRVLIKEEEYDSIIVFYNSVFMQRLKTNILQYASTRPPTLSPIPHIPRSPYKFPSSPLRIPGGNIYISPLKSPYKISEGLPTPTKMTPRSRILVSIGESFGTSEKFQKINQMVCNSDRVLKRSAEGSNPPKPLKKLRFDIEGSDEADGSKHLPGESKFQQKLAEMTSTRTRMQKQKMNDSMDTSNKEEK

B1: PRMT2(1-95&219-433): internal deletion of amino acid 96-218, deleting the AdoMet binding domain (protein)
chain: MATSGDCPRSESQGEEPAECSEAGLLQEGVQPEEFVAIADYAATDETQLSFLRGEKILILRQTTADWWWGERAGCCGYIPANHVGKHVDEYDPEDFEFMIESILYARDAWLKEDGVIWPTMAALHLVPCSADKDYRSKVLFWDNAYEFNLSALKSLAVKEFFSKPKYNHILKPEDCLSEPCTILQLDMRTVQISDLETLRGELRFDIRKAGTLHGFTAWFSVHFQSLQEGQPPQVLSTGPFHPTTHWKQTLFMMDDPVPVHTGDVVTGSVVLQRNPVWRRHMSVALSWAVTSRQDPTSQKVGEKVFPIWR
B2: PRMT4: protein methyltransferase CARM1 (PRMT4) (protein)
chain: AAAAAAVGPGAGGAGSAVPGGAGPCATVSVFPGARLLTIGDANGEIQRHAEQQALRLEVRAGPDSAGIALYSHEDVCVFKCSVSRETECSRVGKQSFIITLGCNSVLIQFATPNDFCSFYNILKTCRGHTLERSVFSERTEESSAVQYFQFYGYLSQQQNMMQDYVRTGTYQRAILQNHTDFKDKIVLDVGCGSGILSFFAAQAGARKIYAVEASTMAQHAEVLVKSNNLTDRIVVIPGKVEEVSLPEQVDIIISEPMGYMLFNERMLESYLHAKKYLKPSGNMFPTIGDVHLAPFTDEQLYMEQFTKANFWYQPSFHGVDLSALRGAAVDEYFRQPVVDTFDIRILMAKSVKYTVNFLEAKEGDLHRIEIPFKFHMLHSGLVHGLAFWFDVAFIGSIMTVWLSTAPTEPLTHWYQVRCLFQSPLFAKAGDTLSGTCLLIANKRQSYDISIVAQVDQTGSKSSNLLDLKNPFFRYTGTTPSPPPGSHYTSPSENMWNTGSTYNLSSGMAVAGMPTAYDLSSVIASGSSVGHNNLIPLANTGIVNHTHSRMGSIMSTGIVQGSSGAQGSGGGSTSAHYAVNSQFTMGGPAISMASPMSIPTNTMHYGS

Assays:
RB = biological target: T1, RB; assay: In vitro binding assay with GST-RB; details: S35-labeled in vitro translated protein
Experimental: The crude cell lysate of the GST-fusion proteins was prepared and purified according to the manufacture's protocol (Amersham/Pharmacia). [^35S]-methionine-labeled protein was produced by in vitro transcription/translation using the TNT T7-coupled reticulocyte lysate system (Promega). [^35S]-methionine-labeled protein and GST-fusion protein bound to glutathione sepharose 4B beads were incubated in 500 μl of HNE buffer (50 mM Hepes, pH 7.8, 150 mM NaCl, 1 mM EDTA, 1 mM DTT, 1% NP40, and 1× protease inhibitor mix (Complete: Roche)) at 4° C. for 1 hour. Beads were washed four times with HNE buffer, and then analyzed on an SDS-PAGE gradient gel (4-15%). For the detection of endogenous PRMT-2 interaction with RB, MEFs were lysed with WCL buffer (50 mM Hepes, pH 7.8, 400 mM NaCl, 2 mM EDTA, 1 mM DTT, 0.2% NP40, 10% Glycerol, 20 mM α-glycerophosphate, 5 mM NaF, 0.1 mM NaVO4, and 1× protease inhibitor mix). Then, 1 mg of whole cell extracts were incubated with HNE buffer without DTT and 3 μg of antibodies as indicated. The immune complexes were isolated using protein G beads, and washed four times with HNE buffer. The precipitated protein was boiled with SDS-loading buffer and resolved on SDS-PAGE. For immunoprecipitation of HA-tagged protein, transfected cells were lysed with RIPA buffer (phosphate buffer saline containing 1% NP40, 0.5% sodium deoxycholate, 0.1% SDS, and 1× Complete), and 100 μg of whole cell lysates were immunoprecipitated with anti-HA antibodies and washed in RIPA buffer. Western blot analysis was performed as described in Tanner et al. (1998). Circ Res, 82, 396-403.
To test whether PRMT family members interact with RB, S^35-labeled in vitro translated PRMT1, PRMT2, PRMT3, and PRMT4 (CARM1) were incubated with GST-RB fusion proteins or control GST, and co-precipitated labeled proteins were resolved by SDS-PAGE. […] An equal amount of GST-RB and GST were loaded in each lane, verified by Coomassie staining (FIG. 8B).

E2F1 = assay: E2F reporter assay (GAL4-E2F1 activator, luciferase); type: cell-based; details: U2OS cells, in the presence of the E2F1 activator
Experimental: HeLa cells, U2OS cells, and Saos2 cells were seeded at a density of 5×10^4 per well in 24-well plates. Cells were transfected 24 hours later with the indicated plasmid and with 20 ng of pRL-TK (Promega) as an internal control to normalize transfection efficiency. The amount of CMV promoter in the transfection was kept constant using empty vector. Cells were harvested at 30 or 36 hour after transfection and luciferase activity was analyzed by Dual-Luciferase Reporter Assay System (Promega). Luciferase activity was measured as a ratio of Firefly to Renilla. To study endogenous E2F activity in MEFs, PRMT-2^+/+ or PRMT-2^−/− MEFs were seeded at a density of 3×10^5 per well in 6-well plates. Cells were transfected 24 hours later with 3 μg of E2F4B-Luc and 10 ng of pRL-TK plasmid. Cells were harvested at 36 hour after transfection and analyzed for luciferase activity as described above.

HIV-1 LTR = assay: HIV-1 reporter transcription, transient co-transfection; type: cell-based, human; details: 293T cells, co-transfection
Experimental: Cell culture, transfection, and reporter gene assays. The E1A-transformed, human kidney cell line, 293, and NIH-3T3 cells were maintained in Dulbecco's Modified Eagle Medium (DMEM) supplemented with 10% fetal calf serum and penicillin-streptomycin at 37° C. in 5% carbon dioxide in tissue culture grade Petri dishes. PRMT-2−/− mouse embryo fibroblasts (MEFs) and wild type MEFs were prepared from day 13.5 embryos and maintained in DMEM supplemented with 10% fetal calf serum. MEFs at passage 4 were used in this experiment. Lipofectamine Plus™ reagent (Boehringer Mannheim) was used to transfect both 293 and NIH-3T3 cells according to directions from the manufacturer. […] TNF-α stimulation of cells was done using recombinant TNF-α (200 U/ml) for 12 hours. Transfected cells were harvested at 36 hours, and CAT activity was assayed on 10 to 100 μg of protein from whole cell extracts. CAT assays were performed essentially as described in Leung, K. & Nabel, G. J. Nature 333, 776-778 (1988). To analyze the κB-reporter activity in MEFs, cells were transfected with the reporter (2×kB-Luc) and PRL-TK vector (Promega) using FuGENE6 transfection reagent (Roche). Luciferase activity was analyzed by Dual-Luciferase Reporter Assay System (Promega).
To determine whether PRMT-1, 2 or 3 could affect NF-κB function, their potential to regulate effects on transcription of the human immunodeficiency virus type 1 (HIV-1) was examined. Transient co-transfections were performed using PRMT1, PRMT2 and PRMT3 expression plasmids with an HIV-1 reporter plasmid in the human renal epithelial cell line, 293T.
To determine its dependence on NF-κB, human immunodeficiency virus type 1 (HIV-1) reporter plasmids with wild-type (WT) or mutant (ΔκB) sites were co-transfected transiently with control or PRMT2 expression plasmids in the different cell lines. […] The KB effect was dose-dependent and was also observed with other inducers of NF-κB, including phorbol […] (PMA) (FIG. 2B, right panel).

Molecule	binding to RB (RB)	E2F1 activity (E2F1)	effect on transcription of the HIV-1 reporter plasmid (HIV-1 LTR)
B1	did not bind GST-RB	failed to repress E2F1 activity	–
B2	do not bind RB	–	failed to inhibit NF-κB transcription specifically
